# From US20090166224A1 (published 2009)
# T1: IG MU CHAIN C REGION (human, UniProt P01871-1 1-453)
# T1 construct: domain: C region; Polyclonal serum IgM, identified through its constant region; variable regions and light chains not defined
# T1 heavy (looked up): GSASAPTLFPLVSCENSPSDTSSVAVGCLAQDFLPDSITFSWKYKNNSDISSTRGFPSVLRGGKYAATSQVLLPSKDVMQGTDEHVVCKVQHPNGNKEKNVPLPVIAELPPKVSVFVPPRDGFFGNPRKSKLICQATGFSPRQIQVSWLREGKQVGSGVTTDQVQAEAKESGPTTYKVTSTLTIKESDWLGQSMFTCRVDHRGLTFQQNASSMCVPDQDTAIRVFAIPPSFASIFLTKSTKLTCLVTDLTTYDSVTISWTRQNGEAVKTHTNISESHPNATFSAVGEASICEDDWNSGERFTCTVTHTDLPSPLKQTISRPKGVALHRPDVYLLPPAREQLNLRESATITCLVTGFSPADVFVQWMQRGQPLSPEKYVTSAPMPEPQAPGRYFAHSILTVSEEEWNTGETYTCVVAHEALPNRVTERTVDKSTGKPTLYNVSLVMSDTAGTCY
# T2: INTER-ALPHA-TRYPSIN INHIBITOR HEAVY CHAIN H1 (human, UniProt P19827 35-672)
# T2 construct: from human serum; also called ITH1
# T2 sequence (looked up): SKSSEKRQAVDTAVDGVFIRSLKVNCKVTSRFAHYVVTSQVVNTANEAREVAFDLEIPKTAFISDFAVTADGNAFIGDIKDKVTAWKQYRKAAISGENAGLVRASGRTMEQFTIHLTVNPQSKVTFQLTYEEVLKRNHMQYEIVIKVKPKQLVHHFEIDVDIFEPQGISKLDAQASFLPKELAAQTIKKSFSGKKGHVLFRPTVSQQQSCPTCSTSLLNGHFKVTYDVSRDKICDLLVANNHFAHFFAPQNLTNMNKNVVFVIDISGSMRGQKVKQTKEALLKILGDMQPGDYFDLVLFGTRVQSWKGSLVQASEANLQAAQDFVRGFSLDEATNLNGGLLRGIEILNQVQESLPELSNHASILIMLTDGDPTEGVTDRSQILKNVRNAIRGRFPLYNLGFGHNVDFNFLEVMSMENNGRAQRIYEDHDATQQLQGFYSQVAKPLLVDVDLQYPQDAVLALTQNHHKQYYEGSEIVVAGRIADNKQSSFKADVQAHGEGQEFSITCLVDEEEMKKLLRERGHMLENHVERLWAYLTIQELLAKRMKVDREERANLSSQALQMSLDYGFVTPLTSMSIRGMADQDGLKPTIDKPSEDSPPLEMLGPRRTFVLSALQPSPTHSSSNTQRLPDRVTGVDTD
# T3: ALPHA-2-MACROGLOBULIN (human, UniProt P01023 24-1474)
# T3 construct: also called A2MG; α2-macroglobulin
# T3 sequence (looked up): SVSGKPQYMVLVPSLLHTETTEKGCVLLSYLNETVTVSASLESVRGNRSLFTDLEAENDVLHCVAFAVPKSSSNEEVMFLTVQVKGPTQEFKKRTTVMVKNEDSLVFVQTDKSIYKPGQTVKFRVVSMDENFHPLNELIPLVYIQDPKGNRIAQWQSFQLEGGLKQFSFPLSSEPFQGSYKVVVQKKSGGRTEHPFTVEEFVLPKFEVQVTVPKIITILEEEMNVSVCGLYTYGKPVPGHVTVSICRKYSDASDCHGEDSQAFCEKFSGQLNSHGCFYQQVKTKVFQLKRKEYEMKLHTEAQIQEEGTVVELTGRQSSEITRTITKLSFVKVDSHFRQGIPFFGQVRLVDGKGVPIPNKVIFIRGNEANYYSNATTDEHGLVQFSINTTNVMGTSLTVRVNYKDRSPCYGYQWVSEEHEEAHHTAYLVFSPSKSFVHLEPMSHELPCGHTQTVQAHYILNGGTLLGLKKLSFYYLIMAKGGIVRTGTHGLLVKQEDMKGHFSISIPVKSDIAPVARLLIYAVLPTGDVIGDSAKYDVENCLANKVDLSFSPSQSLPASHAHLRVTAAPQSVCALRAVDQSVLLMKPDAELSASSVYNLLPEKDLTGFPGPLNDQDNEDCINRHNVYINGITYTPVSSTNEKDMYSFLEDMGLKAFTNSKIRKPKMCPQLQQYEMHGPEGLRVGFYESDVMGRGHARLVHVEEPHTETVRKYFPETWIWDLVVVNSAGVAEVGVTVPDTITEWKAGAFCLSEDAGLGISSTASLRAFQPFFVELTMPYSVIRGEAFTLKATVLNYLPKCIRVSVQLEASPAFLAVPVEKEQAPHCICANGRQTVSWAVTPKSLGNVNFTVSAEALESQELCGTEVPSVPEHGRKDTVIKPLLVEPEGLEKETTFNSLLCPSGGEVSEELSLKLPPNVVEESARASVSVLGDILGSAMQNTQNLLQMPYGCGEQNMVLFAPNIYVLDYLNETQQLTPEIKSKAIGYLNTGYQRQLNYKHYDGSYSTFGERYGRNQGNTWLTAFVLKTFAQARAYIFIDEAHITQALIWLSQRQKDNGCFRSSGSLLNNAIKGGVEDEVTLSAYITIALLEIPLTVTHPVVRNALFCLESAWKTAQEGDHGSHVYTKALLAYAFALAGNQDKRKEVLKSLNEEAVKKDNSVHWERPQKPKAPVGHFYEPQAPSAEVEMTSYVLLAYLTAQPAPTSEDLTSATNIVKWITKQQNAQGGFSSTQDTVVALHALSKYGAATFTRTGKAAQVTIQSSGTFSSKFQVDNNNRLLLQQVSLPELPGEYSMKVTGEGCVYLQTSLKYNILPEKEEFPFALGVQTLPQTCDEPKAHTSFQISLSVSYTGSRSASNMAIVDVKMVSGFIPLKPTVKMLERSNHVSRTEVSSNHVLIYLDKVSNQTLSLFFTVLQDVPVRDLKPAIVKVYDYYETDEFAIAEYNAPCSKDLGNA
# B1: wheat germ agglutinin (WGA), agarose-bound (other, UniProt P10968 27-197, looked up)
# chain: QRCGEQGSNMECPNNLCCSQYGYCGMGGDYCGKGCQNGACWTSKRCGSQAGGATCTNNQCCSQYGYCGFGAEYCGAGCQGGPCRADIKCGSQAGGKLCPNNLCCSQWGFCGLGSEFCGGGCQSGACSTDKPCGKDAGGRVCTNNYCCSKWGSCGIGPGYCGAGCQSGGCDG
# modifications: immobilized on agarose
# notes: Lectin; released with N-acetyl-glucosamine; Coated on the plate in the lectin ELISA
# Columns and labels:
# Assay in all cases: human serum on Con A/WGA/Jacalin column, lectin-specific displacer fraction, LC-MS/MS; grade = SEQUEST rank group (+ = ranks 1-5, ++++ = 16-20)
# IG MU CHAIN C REGION = target: T1, IG MU CHAIN C REGION
# [1] = target: T2, INTER-ALPHA-TRYPSIN INHIBITOR HEAVY …
# ALPHA-2-MACROGLOBULIN = target: T3, ALPHA-2-MACROGLOBULIN
# VITRONECTIN = target: T4, VITRONECTIN (human, UniProt P04004 20-478)
# T4 construct: from human serum; also called VTNC
# T4 sequence (P04004 20-478 limits assumed): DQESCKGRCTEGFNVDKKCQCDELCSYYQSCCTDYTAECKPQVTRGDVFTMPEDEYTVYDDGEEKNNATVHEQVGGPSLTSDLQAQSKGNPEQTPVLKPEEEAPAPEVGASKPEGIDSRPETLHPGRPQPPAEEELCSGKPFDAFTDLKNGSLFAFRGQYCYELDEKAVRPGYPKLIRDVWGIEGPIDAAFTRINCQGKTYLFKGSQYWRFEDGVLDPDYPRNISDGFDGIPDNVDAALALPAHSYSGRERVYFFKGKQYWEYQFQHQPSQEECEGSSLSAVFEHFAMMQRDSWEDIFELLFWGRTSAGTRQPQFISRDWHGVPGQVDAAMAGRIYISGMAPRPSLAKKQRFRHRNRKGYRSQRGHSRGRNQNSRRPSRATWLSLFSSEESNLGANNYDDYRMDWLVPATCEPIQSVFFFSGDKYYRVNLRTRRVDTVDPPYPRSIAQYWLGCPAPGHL
binder,measurement,setting,value
B1,SEQUEST ranking (relative abundance in the WGA displacement fraction),IG MU CHAIN C REGION,6 to 10 rank
same,SEQUEST ranking (relative abundance in the WGA displacement fraction),[1],11 to 15 rank
same,SEQUEST ranking (relative abundance in the WGA displacement fraction),ALPHA-2-MACROGLOBULIN,1 to 5 rank
same,SEQUEST ranking (relative abundance in the WGA displacement fraction),VITRONECTIN,6 to 10 rank
